The results in this text go back to a protein production outcome set (Wang et al. 2014).

A short description of this series: label from the status in PepcDB records.

As for “MVMEKALTLQQMPDFIVSTIPKGQASYLVFGERSIGKKDVIDIVIKQLEKIGFRTGVEQVPSVGETYKNQTLNSIMDKITGKTEVRDKNTIIKEYDEFTRNNKEKIVIAVYGVEKLSMESKNLFLYMCRISRNRNVTLIGTYNADSTDEYDRFINLIASEDYINIIKIEKPTIEDIAFLVKKMGYKLPDDFVKEIARLTNYNIDSMKYALRYYQDLGVINDRKEINTVSFRYIPVPPTTELYYEKMINSLTDLEKNVAYLMVMLSNDIDVDSAAIILNRKRTEVLNIIRKLEDKGLVKFNGQVVGFYSDKIRRSVEKSMKTSDIAYMTSLIESSQLFMRMPPAQRMHILMKANKLDEIRDIIKEKGQSLVDGYNSVDEVIEDLEQLGNVFSEDSDVKKVLCHAYYLKGRFDKAISCYMDIKPDHDLDSMIDLSSIYSNMGKFEEAEKILEDAKNNFTDDYPQTIISYRIAALYYRMGRYKDTIDMLTPLLGKIDAENMSGVKAGILNILGNIDMTSYRYGDALKKYNEALEINRKLSNYAEISRNLNNIALIDVYTGKYDLAISILKELIETTYSTGDLVSRIYAIYNLSEIYYVIGKQEYAEGYIPLMMRILDVVSEKRVSFHIYRFLTMYYVGLLDFKMAKKYAELAIENAIMEDQKIMAIIFHKIINYVLTGEDPNIDTQEIDSTNFTDDYTSTFLIALAYYYRIIENQEMAKHYVDMAEEAAYKMKIPYVIVNASFHKAVILLSIGDLDGFRRHFERMQKPPTTIQFYDDSFEIFRSIYDGNFDAIKSSKYRIIEEDHVNGTLKGLMPVILNAFALYKFSGIPDDLHHLINVTPEPYSRLLALITNYH”, the protein production result is recorded as “failed”.

With “MVMPESHIHNIPMEQCVLVALMTFALSYELIAQDLDEGCFYPERHKQIYNAIVELANENQPYDVVMVEQRLKSKNLLHVLGGEQYLKIMLAEAPSSFHSMEPYITQLKKLKAHRQVEWLGQRISSMAQDTTQPDVFAEAENILGQVDNQEQSDQGMSFEAALDMALTEMIEKAEAKDKQQFTGVKFNLKHLDELLGTVQKGHFCVVGGRPGSGKSTLAQMLALDTASSFGKGVLFISAEMDQSTLANRMISALGLIPYHNIHNAELYNGLMKDYADAKAAYQRLPIWIQPKQKPSLSEVRSYARRAKRRYKELGCIIVDYLQLLRDPSKKDRFQEVSSISRELKSMAKEFECPVIALVQLNREAEKGKRPKASDIKESGQIEQDADQIILVNPLTDPEDSTKPMGITELIVVKNRHGKRGAVRVLDYLETCRFRSVEEQAEP”, the protein production entry is recorded as “failed”.

As for “MVMSIEASCHCGETVFEVTEAPSSVTRCTCSLCAKRGSLWAYYKPAQFRLLSPPENVTTYLWGSRTVKHHFCASCGCGTYSESPDWSTGKPDFDNPKVAVNARLFDDFDLDAVPVNMIDGKNLWLEHHHHHH”, the protein production entry is given as “not failed”.

For “MVNEGLIPSLEDEVKRRGVINQLRKIVVRWVKNVAWQHRLPQNQIDATNATILPYGSYGLGVYGSESDIDALCIGPFFASIADFFISLRDMLKSRREVSELHCVKDAKVPLIRFKFDGILVDLPYAQLRVLSIPNNVDVLNPFFLRDIDETSWKILSGVRANKCILQLVPSLELFQSLLRCVKLWAKRRGVYGNLNGFLGGVHMAILAAFVCGYQPNATLSSLLANFFYTFAHWQWPTPVVLLEDTYPSTGAPPGLMPIQLPCGSHQYCNSTITRSTFYKIVAEFLLGHNLTKDYLKLNFSWKDLFELYPYANTYTWFTKIHLSAANQEDLSDWVGWVKSRFRCLLIKIEEVYGICDPNPTEYVETYTKQPNIVFYWGLQLRTINVSDIESVKIDFLKNVNSGSFRGTVGRIQLTLVKASQLPKNGECGSNNRSKKVTKTCWRIREDKQCNNVPVYSKHLPGYVVGYQKMVNREADGMEVKC”, the protein production result is “failed”.

Take “MVNQQEEINLSVALVTRNRPDSLERCLKSLRDQKVQPFEVVVSDDSDDLYKSSTKEIAQKWGCRYIDGPKRGLYANRNYVALACYGTHIRTMDDDHEFPEQHIEVCLNAIQSDPSSIWIIGEYSPTSSIENAPHPCPGQLHPRGFSFYPKDTQNCWAIADGASIYPKKIFASGLRFVEYYKFGASYLEWGSRLYYLSYRIRHLDSTYIIHHFNPKARSFSDQEMDQSSRFFAMLCHSFLYQSTFKNKCLFSYEILKQFILDPKLTIKCIINSWSNFELFSRSFCALEHHHHHH”: the protein production result is listed as “failed”.

Consider “MVNRCFFFNRRICFMELFLLRHGKPDIRRSMAIRSVDMYSWIGEYDAAGILDSPDASTVAASEGKFIVSSPMPRALESVAALGLEPDIIIDELHEAPLPVFNIPLLKLTPLVWAALFRIFWMAGGSGGVETFSSVKIRAKLVSCELDKMAETHGSVLSVGHGFMNALVARELQKAGWKRQKVGPSGYWSGIKLVR”, for which the protein production result is on record as “failed”.
